A word on the Kd: it is the concentration at which binding is half-saturated. Low values mean a tighter complex, high ones a looser complex. For orientation: IC50 means the concentration at which inhibition is half-maximal.

For series [1], the target named is T1, MutS (Escherichia coli, UniProt P23909 1-853).
T1 sequence: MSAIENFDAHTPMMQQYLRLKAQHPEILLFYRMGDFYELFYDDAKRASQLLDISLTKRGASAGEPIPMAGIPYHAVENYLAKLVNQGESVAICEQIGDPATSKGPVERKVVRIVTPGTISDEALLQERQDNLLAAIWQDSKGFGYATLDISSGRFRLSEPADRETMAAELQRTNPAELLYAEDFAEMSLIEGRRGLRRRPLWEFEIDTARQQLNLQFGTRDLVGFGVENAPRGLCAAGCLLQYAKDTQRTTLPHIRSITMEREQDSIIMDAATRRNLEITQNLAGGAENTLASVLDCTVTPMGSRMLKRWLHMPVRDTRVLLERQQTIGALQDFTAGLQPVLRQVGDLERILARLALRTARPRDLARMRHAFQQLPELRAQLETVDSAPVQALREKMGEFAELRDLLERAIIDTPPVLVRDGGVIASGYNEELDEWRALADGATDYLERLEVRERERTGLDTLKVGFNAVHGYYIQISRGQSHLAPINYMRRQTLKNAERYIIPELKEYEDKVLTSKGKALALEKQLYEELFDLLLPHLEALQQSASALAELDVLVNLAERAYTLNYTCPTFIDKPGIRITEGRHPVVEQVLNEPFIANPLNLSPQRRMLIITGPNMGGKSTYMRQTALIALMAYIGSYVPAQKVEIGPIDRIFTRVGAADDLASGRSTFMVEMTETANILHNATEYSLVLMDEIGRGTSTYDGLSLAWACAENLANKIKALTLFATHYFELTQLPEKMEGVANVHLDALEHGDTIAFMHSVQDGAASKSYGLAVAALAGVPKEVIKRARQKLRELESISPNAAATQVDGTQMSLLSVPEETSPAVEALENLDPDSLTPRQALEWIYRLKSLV
Kind of series: FRET equilibrium titration.

Series [2] concerns the target T1, MutS. Kind of series: FRET equilibrium titration. This is another data set of the same source.
In series [3] the target is T1, MutS. Kind of series: competition.
Series [4] addresses T1, MutS. Kind of series: competition. The source holds these as a separate data set.
For series [5], the target named is T1, MutS. Kind of series: stopped-flow FRET kinetics.
The target of series [6] is T1, MutS. The series is described as follows: stopped-flow FRET kinetics. This is another data set of the same source.
Series [7] deals with T1, MutS. Kind of series: stopped-flow FRET kinetics. The source holds these as a separate data set.
The target in series [8] is T1, MutS. The series is described as follows: FRET equilibrium titration. The source holds these as a separate data set.
In series [9] the target is T1, MutS. The series is described as follows: FRET equilibrium titration. This is another data set of the same source.
For series [10], the target named is T1, MutS. The series is described as follows: stopped-flow FRET kinetics. The source holds these as a separate data set.
For series [11], the target named is T1, MutS. The series is described as follows: competition. The source holds these as a separate data set.
Series [12] concerns the molecule itself. Kind of series: other fluorescence titration.
Series [13] deals with the molecule itself. The series is described as follows: other fluorescence titration. The source holds these as a separate data set.

Positions count from the first letter of the chain named. Names and notes keep the numbering of the source. Read-outs that look alike come from different tables or passages of the source.

B1: 30-2ΔT (dsDNA)
DNA 1: AACTGCCAGGCACCAGTGTCAGCGTCGTAT
DNA 2: ATACGACGCTGACACTGGTGCCTTTGGCAGTT
As to B1, the Kd in the series with MutS [1] is 89 nM; in the series with MutS [2], 74 nM.

B2: 90-bp homoduplex (dsDNA)
DNA 1: CGCAGTGCTAAGACGTACCATGCAACCGTAGATTCTAACTGCCAGGCACCAGTGTCAGCGTCGTATAGTCGTGTATAGATCGTTATCTGC
DNA 2: GCAGATAACGATCTATACACGACTATACGACGCTGACACTGGTGCCTGGCAGTTAGAATCTACGGTTGCATGGTACGTCTTAGCACTGCG
Regarding B2, in the series with MutS [3], the Kd was approximately 3700 nM. The molecule further yielded an IC50 with MutS [4] of approximately 3600 nM.

B3: 30-CT (dsDNA)
DNA 1: B1 DNA 1 with G9C
DNA 2: ATACGACGCTGACACTGGTGCTTGGCAGTT
As for B3, the equilibrium dissociation constant (Kd) with MutS [1] was found to be 324 nM; with MutS [2] it was 331 nM.

B4: 30-TG (dsDNA)
DNA 1: B1 DNA 1 with G9T
DNA 2: B3 DNA 2 with T22G
With B4, the Kd in the series with MutS [1] came out at 80 nM; with MutS [2], 70 nM.

B5: 30-AG (dsDNA)
DNA 1: B1 DNA 1 with G9A
DNA 2: B3 DNA 2 with T22G
Turning to B5, the Kd with MutS [1] came to 319 nM; in the series with MutS [2], 251 nM.
Take AACTGCCAGGCACCAGTGTCAGCGTCGTAT (ssDNA) [30-ssDNA]: binding with MutS [3] was put at a Kd of 6500 nM. Besides, the IC50 in the series with MutS [4] is approximately 6200 nM.

B6: 30-AC (dsDNA)
DNA 1: B1 DNA 1 with G9A
DNA 2: B3 DNA 2 with T22C
For the molecule B6, the dissociation constant (Kd) with MutS [1] came out at 154 nM; in the series with MutS [2], 97 nM.

B7: 30-GG (dsDNA)
DNA 1: B1 DNA 1
DNA 2: B3 DNA 2 with T22G
In the case of B7, the Kd in the series with MutS [1] was found to be 168 nM; with MutS [2], 137 nM.

B8: 30-AA (dsDNA)
DNA 1: B1 DNA 1 with G9A
DNA 2: B3 DNA 2 with T22A
B8: the equilibrium dissociation constant (Kd) in the series with MutS [5] is 63 nM; with MutS [6] it was 153 nM; in the series with MutS [1] it was 214 nM; with MutS [2], 108 nM.

B9: 30-CC (dsDNA)
DNA 1: B1 DNA 1 with G9C
DNA 2: B3 DNA 2 with T22C
Turning to B9, the equilibrium dissociation constant (Kd) in the series with MutS [1] was 300 nM; with MutS [2], 410 nM.

B10: 30-TT (dsDNA)
DNA 1: B1 DNA 1 with G9T
DNA 2: B3 DNA 2
With B10, the equilibrium dissociation constant (Kd) in the series with MutS [1] was 291 nM; with MutS [2], 321 nM.

B11: 30-GT (dsDNA)
DNA 1: B1 DNA 1
DNA 2: B3 DNA 2
Turning to B11, the Kd was 26 nM with MutS [7]; approximately 176 nM with MutS [8]; 74 nM with MutS [1]; 69 nM with MutS [9]; 91 nM with MutS [10].

B12: 30-GC (30-bp homoduplex) (dsDNA)
DNA 1: B1 DNA 1
DNA 2: B3 DNA 2 with T22C
As to B12, the Kd was 30500 nM with MutS [11] and 23100 nM with MutS [3].

B13: E. coli His6-MutS (natural protein, UniProt P23909 1-853, looked up)
chain: T1 sequence
Take B13: the “stoichiometry N” value in [12] was 3.58 MutS monomers per heteroduplex; in series [13] it was 3.7 MutS monomers per heteroduplex.

B14: E. coli His6-mutS-A842E (natural protein, UniProt P23909 1-853, looked up)
chain: T1 sequence with A842E
With B14, the results for the “stoichiometry N” value in series [12] and in series [13] were 2.27 MutS monomers per heteroduplex and 2.21 MutS monomers per heteroduplex, respectively.

The values above are taken from paper PMC2666446 (Journal of molecular biology, 2008).
